Measured values published in publication PMC6321010, “Interaction of the GTPase Elongation Factor Like-1 with the Shwachman-Diamond Syndrome Protein and Its Missense Mutations” (International Journal of Molecular Sciences, 2018).

Tests used:
Test in all cases: fluorescence polarisation; fluorescence anisotropy; 2 µL additions of 40-90 µM human EFL1 titrated into 300 µL of 0.1 µM Lumio Green-labelled human SBDS-FlAsH construct; 25 °C; 50 mM Tris-HCl pH 8, 300 mM NaCl, 5 mM β-mercaptoethanol; fitted to a single-site or a two different binding sites model
Settings in all cases: both partners purified
[1] = molecular target: T1, human SBDS R175W with C-terminal FlAsH tag, labelled with Lumio Green (human, UniProt Q9Y3A5 1-250, R175W, Lumio Green dye (4',5'-bis(1,3,2-dithioarsolan-2-yl) fluorescein) on the C-terminal FlAsH tag)
T1 construct: Missense variant found in patients; source: E. coli C41 (pRSET plasmid), purified by conventional chromatographic techniques; not shown: FlAsH tag (Cys-Cys-Pro-Gly-Cys-Cys), C-terminal, kept
T1 sequence (looked up): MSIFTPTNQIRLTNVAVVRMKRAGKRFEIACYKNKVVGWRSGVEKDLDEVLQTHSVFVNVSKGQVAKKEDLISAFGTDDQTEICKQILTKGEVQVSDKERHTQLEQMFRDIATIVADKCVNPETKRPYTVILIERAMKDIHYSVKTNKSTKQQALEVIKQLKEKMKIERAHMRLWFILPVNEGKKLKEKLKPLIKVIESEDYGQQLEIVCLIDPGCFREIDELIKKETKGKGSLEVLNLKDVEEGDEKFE

[2] = molecular target: T2, human SBDS domains 1-2 (residues 1-174) with C-terminal FlAsH tag, labelled with Lumio Green (human, UniProt Q9Y3A5 1-174, Lumio Green dye (4',5'-bis(1,3,2-dithioarsolan-2-yl) fluorescein) on the C-terminal FlAsH tag)
T2 construct: human SBDS, domains 1-2, residues 1-174; also called construct consisting of domains 1-2 of SBDS; source: E. coli C41 (pRSET plasmid), purified by conventional chromatographic techniques; not shown: FlAsH tag (Cys-Cys-Pro-Gly-Cys-Cys), C-terminal, kept
T2 sequence (looked up): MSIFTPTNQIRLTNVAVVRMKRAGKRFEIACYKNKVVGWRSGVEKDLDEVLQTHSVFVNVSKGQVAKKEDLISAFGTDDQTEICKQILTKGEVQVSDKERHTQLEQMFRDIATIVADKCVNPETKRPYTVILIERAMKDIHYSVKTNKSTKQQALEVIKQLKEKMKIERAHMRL

[3] = molecular target: T3, human SBDS R19Q with C-terminal FlAsH tag, labelled with Lumio Green (human, UniProt Q9Y3A5 1-250, R19Q, Lumio Green dye (4',5'-bis(1,3,2-dithioarsolan-2-yl) fluorescein) on the C-terminal FlAsH tag)
T3 construct: human SBDS, SDS disease surface missense variant R19Q (domain 1), in the three-domain protein; Missense variant found in patients; source: E. coli C41 (pRSET plasmid), purified by conventional chromatographic techniques; not shown: FlAsH tag (Cys-Cys-Pro-Gly-Cys-Cys), C-terminal, kept
T3 sequence (looked up): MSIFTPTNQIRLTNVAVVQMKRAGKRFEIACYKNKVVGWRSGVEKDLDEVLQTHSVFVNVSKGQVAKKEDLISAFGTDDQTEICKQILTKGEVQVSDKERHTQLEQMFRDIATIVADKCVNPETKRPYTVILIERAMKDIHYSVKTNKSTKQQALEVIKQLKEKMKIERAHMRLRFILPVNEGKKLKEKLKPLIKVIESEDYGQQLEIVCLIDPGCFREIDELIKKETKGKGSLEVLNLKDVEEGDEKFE

Kd1 (first binding site, two different binding sites model) [1]: 12 ± 4 µM
Kd2 (second binding site, two different binding sites model) [1]: 3.3 ± 0.6 µM
Kd1 (first binding site, two different binding sites model) [2]: 11.3 ± 1.8 µM
Kd2 (second binding site, two different binding sites model) [2]: 3.9 ± 0.2 µM
Kd1 (first binding site, two different binding sites model) [3]: 4.2 ± 0.5 µM
Kd2 (second binding site, two different binding sites model) [3]: 5.2 ± 0.3 µM
B1: human Elongation Factor Like-1 (EFL1) (enzyme)
chain: MVLNSLDKMIQLQKNTANIRNICVLAHVDHGKTTLADCLISSNGIISSRLAGKLRYMDSREDEQIRGITMKSSAISLHYATGNEEYLINLIDSPGHVDFSSEVSTAVRICDGCIIVVDAVEGVCPQTQAVLRQAWLENIRPVLVINKIDRLIVELKFTPQEAYSHLKNILEQINALTGTLFTSKVLEERAERETESQVNPNSEQGEQVYDWSTGLEDTDDSHLYFSPEQGNVVFTSAIDGWGFGIEHFARIYSQKIGIKKEVLMKTLWGDYYINMKAKKIMKGDQAKGKKPLFVQLILENIWSLYDAVLKKDKDKIDKIVTSLGLKIGAREARHSDPKVQINAICSQWLPISHAVLAMVCQKLPSPLDITAERVERLMCTGSQTFDSFPPETQALKAAFMKCGSEDTAPVIIFVSKMFAVDAKALPQNKPRPLTQEEIAQRRERARQRHAEKLAAAQGQAPLEPTQDGSAIETCPKGEEPRGDEQQVESMTPKPVLQEENNQESFIAFARVFSGVARRGKKIFVLGPKYSPLEFLRRVPLGFSAPPDGLPQVPHMAYCALENLYLLMGRELEYLEEVPPGNVLGIGGLQDFVLKSATLCSLPSCPPFIPLNFEATPIVRVAVEPKHPSEMPQLVKGMKLLNQADPCVQILIQETGEHVLVTAGEVHLQRCLDDLKERFAKIHISVSEPIIPFRETITKPPKVDMVNEEIGKQQKVAVIHQMKEDQSKIPEGIQVDSDGLITITTPNKLATLSVRAMPLPEEVTQILEENSDLIRSMEQLTSSLNEGENTHMIHQKTQEKIWEFKGKLEQHLTGRRWRNIVDQIWSFGPRKCGPNILVNKSEDFQNSVWTGPADKASKEASRYRDLGNSIVSGFQLATLSGPMCEEPLMGVCFVLEKWDLSKFEEQGASDLAKEGQEENETCSGGNENQELQDGCSEAFEKRTSQKGESPLTDCYGPFSGQLIATMKEACRYALQVKPQRLMAAMYTCDIMATGDVLGRVYAVLSKREGRVLQEEMKEGTDMFIIKAVLPVAESFGFADEIRKRTSGLASPQLVFSHWEIIPSDPFWVPTTEEEYLHFGEKADSENQARKYMNAVRKRKGLYVEEKIVEHAEKQRTLSKNK
notes: human EFL1, GTPase, said to comprise 1120 residues; the expressed protein is fused to a TEV recognition site and a hexahistidine tag at the C-terminus; also called human EFL1; GTPase Elongation Factor Like-1; source: S. cerevisiae BCY123 (pRS426 backbone, GAL1/10 promoter), purified
